Data on two compounds can be found in article PMC6832383, “Co-Immobilization of Tri-Enzymes for the Conversion of Hydroxymethylfurfural to 2,5-Diformylfuran” (Molecules, 2019).

For one data set, the system named is T1, horseradish peroxidase.
T1 construct: gene PRXC1A
The data set is described as follows: spectrophotometric initial rates at […] nm (purpurogallin), non-linear Michaelis-Menten fit. Type of data set: biochemical, Armoracia rusticana. As to conditions: free enzyme; co-substrate 10 mM H2O2; 100 mM phosphate pH 6.0; 30 °C; pyrogallol 1-8 mM.

A further data set relates to COc1cccc(CO)c1. The data set can be described thus: purified protein. As to conditions: free enzyme, Tris-HCl 50 mM pH 7.1, 37 °C, substrate 3-60 mM.

What is called Km is the concentration of substrate that gives half-maximal velocity. Regarding `Oc1cccc(O)c1O` [pyrogallol], the Km in the data set on horseradish peroxidase worked out at 2210 ± 40 µM. For orientation: Vmax means the rate approached at saturating substrate. “galactose oxidase (Fusarium graminearum)”: in the data set on COc1cccc(CO)c1, the Km came out at 17600 ± 1300 µM and the Vmax came out at 216 µmol/min/mg.
